Laboratory results from paper PMC10467612 (RSC Chemical Biology, 2023).

Legend:
NC(Cc1ccccc1F)C(=O)O = test: adenylation saturation kinetics; format: biochemical, Aneurinibacillus migulanus; details: ATP A-domain binding pocket enlarged by W239S
NC(Cc1cccc(F)c1)C(=O)O = test: adenylation saturation kinetics; format: biochemical, Aneurinibacillus migulanus; details: ATP A-domain binding pocket enlarged by W239S
GrsA = molecular target: T1, GrsA (Aneurinibacillus migulanus, UniProt P0C061); test: isothermal titration calorimetry; format: binding
T1 sequence (P0C061 1-428 limits assumed): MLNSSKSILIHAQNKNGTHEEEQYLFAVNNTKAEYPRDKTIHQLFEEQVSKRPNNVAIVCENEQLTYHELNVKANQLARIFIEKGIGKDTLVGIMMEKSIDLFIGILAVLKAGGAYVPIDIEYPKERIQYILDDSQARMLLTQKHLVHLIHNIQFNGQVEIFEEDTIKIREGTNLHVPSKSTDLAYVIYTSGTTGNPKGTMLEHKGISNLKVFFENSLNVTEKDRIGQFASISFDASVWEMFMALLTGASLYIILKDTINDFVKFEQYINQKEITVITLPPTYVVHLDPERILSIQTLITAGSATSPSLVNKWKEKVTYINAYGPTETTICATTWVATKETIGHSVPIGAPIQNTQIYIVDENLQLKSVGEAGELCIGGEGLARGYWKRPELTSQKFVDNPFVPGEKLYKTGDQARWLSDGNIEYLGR

[1] = substrate: NC(Cc1cccc(F)c1)C(=O)O; test: adenylation saturation kinetics; format: biochemical, Aneurinibacillus migulanus; details: ATP A-domain binding pocket; T-shaped aromatic interaction with Trp239
[2] = substrate: NC(Cc1cc(F)cc(F)c1)C(=O)O; test: adenylation saturation kinetics; format: biochemical, Aneurinibacillus migulanus; details: ATP A-domain binding pocket; T-shaped aromatic interaction with Trp239
[3] = substrate: NC(Cc1ccccc1F)C(=O)O; test: adenylation saturation kinetics; format: biochemical, Aneurinibacillus migulanus; details: ATP A-domain binding pocket; T-shaped aromatic interaction with Trp239
[4] = substrate: CC(C)C(N)C(=O)O; test: adenylation saturation kinetics; format: biochemical, Bacillus subtilis; details: ATP
[5] = substrate: CC(C)(F)C(N)C(=O)O; test: adenylation saturation kinetics; format: biochemical, Bacillus subtilis; details: ATP

GrsA-W239S (Aneurinibacillus migulanus; W239S)
Km (NC(Cc1ccccc1F)C(=O)O): 3000 ± 1000 µM
kcat (NC(Cc1ccccc1F)C(=O)O): 0.667 ± 0.167 s⁻¹
kcat/Km (NC(Cc1ccccc1F)C(=O)O): 267 M⁻¹ s⁻¹
Km (NC(Cc1cccc(F)c1)C(=O)O): 900 ± 100 µM
kcat (NC(Cc1cccc(F)c1)C(=O)O): 0.233 ± 0.0167 s⁻¹
kcat/Km (NC(Cc1cccc(F)c1)C(=O)O): 250 M⁻¹ s⁻¹

NC(Cc1ccccc1)C(=O)O (racemic) [Phe]
Kd (GrsA): 60 ± 10 µM

B1: GrsA (Aneurinibacillus migulanus) (protein)
chain: MLNSSKSILIHAQNKNGTHEEEQYLFAVNNTKAEYPRDKTIHQLFEEQVSKRPNNVAIVCENEQLTYHELNVKANQLARIFIEKGIGKDTLVGIMMEKSIDLFIGILAVLKAGGAYVPIDIEYPKERIQYILDDSQARMLLTQKHLVHLIHNIQFNGQVEIFEEDTIKIREGTNLHVPSKSTDLAYVIYTSGTTGNPKGTMLEHKGISNLKVFFENSLNVTEKDRIGQFASISFDASVWEMFMALLTGASLYIILKDTINDFVKFEQYINQKEITVITLPPTYVVHLDPERILSIQTLITAGSATSPSLVNKWKEKVTYINAYGPTETTICATTWVATKETIGHSVPIGAPIQNTQIYIVDENLQLKSVGEAGELCIGGEGLARGYWKRPELTSQKFVDNPFVPGEKLYKTGDQARWLSDGNIEYLGRIDNQVKIRGHRVELEEVESILLKHMYISETAVSVHKDHQEQPYLCAYFVSEKHIPLEQLRQFSSEELPTYMIPSYFIQLDKMPLTSNGKIDRKQLPEPDLTFGMRVDYEAPRNEIEETLVTIWQDVLGIEKIGIKDNFYALGGDSIKAIQVAARLHSYQLKLETKDLLKYPTIDQLVHYIKDSKRRSEQGIVEGEIGLTPIQHWFFEQQFTNMHHWNQSYMLYRPNGFDKEILLRVFNKIVEHHDALRMIYKHHNGKIVQINRGLEGTLFDFYTFDLTANDNEQQVICEESARLQNSINLEVGPLVKIALFHTQNGDHLFMAIHHLVVDGISWRILFEDLATAYEQAMHQQTIALPEKTDSFKDWSIELEKYANSELFLEEAEYWHHLNYYTENVQIKKDYVTMNNKQKNIRYVGMELTIEETEKLLKNVNKAYRTEINDILLTALGFALKEWADIDKIVINLEGHGREEILEQMNIARTVGWFTSQYPVVLDMQKSDDLSYQIKLMKENLRRIPNKGIGYEIFKYLTTEYLRPVLPFTLKPEINFNYLGQFDTDVKTELFTRSPYSMGNSLGPDGKNNLSPEGESYFVLNINGFIEEGKLHITFSYNEQQYKEDTIQQLSRSYKQHLLAIIEHCVQKEDTELTPSDFSFKELELEEMDDIFDLLADSLT
Km [1]: 14 ± 5 µM
kcat [1]: 0.35 ± 0.0333 s⁻¹
kcat/Km [1]: 25000 M⁻¹ s⁻¹
Km [2]: 14 ± 3 µM
kcat [2]: 0.517 ± 0.0333 s⁻¹
kcat/Km [2]: 36700 M⁻¹ s⁻¹
Km [3]: 20 ± 2 µM
kcat [3]: 0.458 ± 0.0133 s⁻¹
kcat/Km [3]: 23300 M⁻¹ s⁻¹

B2: SrfA-B1 (Bacillus subtilis subsp. subtilis str. 168) (protein)
chain: ASTAVVYEGTKLTYRELNAAANRLARKLVEHGLQKGETAAIMNDRSVETVVGMLAVLKAGAAYVPLDPALPGDRLRFMAEDSSVRMVLIGNSYTGQAHQLQVPVLTLDIGFEESEAADNLNLPSAPSDLAYIMYTSGSTGKPKGVMIEHKSILRLVKNAGYVPVTEEDRMAQTGAVSFDAGTFEVFGALLNGAALYPVKKETLLDAKQFAAFLREQSITTMWLTSPLFNQLAAKDAGMFGTLRHLIIGGDALVPHIVSKVKQASPSLSLWNGYGPTENTTFSTSFLIDREYGGSIPIGKPIGNSTAYIMDEQQCLQPIGAPGELCVGGIGVARGYVNLPELTEKQFLEDPFRPGERIYRTGDLARWLPDGNIEFLGRIDNQVKVRGFRIELGEIETKLNMAEHVTEAAVIIRKNKADENEICAYFTADREVAVSELRKTLSQSLPDYMVPAHLIQMDSLPLTPNGKINKKELPAPQSEAVQ
Km [4]: 60 ± 20 µM
kcat [4]: 0.133 ± 0.0333 s⁻¹
kcat/Km [4]: 2330 M⁻¹ s⁻¹
Km [5]: 8000 ± 1000 µM
kcat [5]: 0.467 ± 0.05 s⁻¹
kcat/Km [5]: 58.3 M⁻¹ s⁻¹
